Measurements published in patent US20110318339A1 (FABRUS, published 2011).
Positions count from the first letter of the chain named. Numbers in names are those of the source.

B1: Fab VH5-51_IGHD5-18*01>3_IGHJ4*01 G100K/G104T G24T/S28R/G35V & V3-4_IGLJ1*01 V91L/S96P S52Q (Fab, V domains shown)
VH: EVQLVQSGAEVKKPGESLKISCKTSGYRFTSYWIVWVRQMPGKGLEWMGIIYPGDSDTRYSPSFQGQVTISADKSISTAYLQWSSLKASDTAMYYCARRKYSYTYDYFDYWGQGTLVTVSS
VL: QTVVTQEPSFSVSPGGTVTLTCGLSSGSVSTSYYPSWYQQTPGQAPRTLIYQTNTRSSGVPDRFSGSILGNKAALTITGAQADDESDYYCLLYMGPGISYVFGTGTKVTVL
notes: Fab made in E. coli: VH on CH1 with His6 and Flag tags (Plasmid A), VL on lambda CL (Plasmid E); also called H: KT TRV & L: LP S52Q
B2: Fab VH5-51_IGHD5-18*01>3_IGHJ4*01 G100K/G104T G24T/S28R/G35V & V3-4_IGLJ1*01 V91L/S96P S52T (Fab, V domains shown)
VH: B1 VH
VL: B1 VL with Q52T
notes: Fab made in E. coli: VH on CH1 with His6 and Flag tags (Plasmid A), VL on lambda CL (Plasmid E); also called H: KT TRV & L: LP S52T
B3: Fab VH5-51_IGHD5-18*01>3_IGHJ4*01 G100K/G104T G24T/S28R/G35V & V3-4_IGLJ1*01 V91L/S96P S52V (Fab, V domains shown)
VH: B1 VH
VL: B1 VL with Q52V
notes: Fab made in E. coli: VH on CH1 with His6 and Flag tags (Plasmid A), VL on lambda CL (Plasmid E); also called H: KT TRV & L: LP S52V
B4: Fab VH5-51_IGHD5-18*01>3_IGHJ4*01 G100K/G104T G24T/S28R/G35V & V3-4_IGLJ1*01 V91L/S96P S52Y (Fab, V domains shown)
VH: B1 VH
VL: B1 VL with Q52Y
notes: Fab made in E. coli: VH on CH1 with His6 and Flag tags (Plasmid A), VL on lambda CL (Plasmid E); also called H: KT TRV & L: LP S52Y
B5: Fab VH1-46_IGHD6-6*01_IGHJ1*01 S102A/S103P/S104F/H111F G56H & L6_IGKJ1*01 (Fab, V domains shown)
VH: QVQLVQSGAEVKKPGASVKVSCKASGYTFTSYYMHWVRQAPGQGLEWMGIINPSGHSTSYAQKFQGRVTMTRDTSTSTVYMELSSLRSEDTAVYYCAREEYAPFSAEYFQFWGQGTLVTVSS
VL: not shown
notes: Fab made in E. coli: VH on CH1 with His6 and Flag tags (Plasmid A), VL on kappa CL (Plasmid C); also called H: APFF G56H & L: wt
B6: Fab VH1-46_IGHD6-6*01_IGHJ1*01 S102A/S103P/S104F/H111F I51A/N52L/S54T/G56H & L6_IGKJ1*01 S28N/S30D/S31H (Fab, V domains shown)
VH: B5 VH with I51A, N52L, S54T
VL: EIVLTQSPATLSLSPGERATLSCRASQNVDHYLAWYQQKPGQAPRLLIYDASNRATGIPARFSGSGSGTDFTLTISSLEPEDFAVYYCQQRSNWPPWTFGQGTKVEIKR
notes: Fab made in E. coli: VH on CH1 with His6 and Flag tags (Plasmid A), VL on kappa CL (Plasmid C); also called H: APFF ALTH & L: NDH
B7: Fab VH1-46_IGHD6-6*01_IGHJ1*01 S102A/S103P/S104F/H111F N52L/S54T/G56H & L6_IGKJ1*01 S28N/S30D/S31H (Fab, V domains shown)
VH: B5 VH with N52L, S54T
VL: B6 VL
notes: Fab made in E. coli: VH on CH1 with His6 and Flag tags (Plasmid A), VL on kappa CL (Plasmid C); also called H: APFF LTH & L: NDH
B8: Fab VH1-46_IGHD6-6*01_IGHJ1*01 S102A/S103P/S104F/H111F N52L/S54T/G56H & L6_IGKJ1*01 S28N/S30D/S31H S52L/A55G (Fab, V domains shown)
VH: B5 VH with N52L, S54T
VL: B6 VL with S52L, A55G
notes: Fab made in E. coli: VH on CH1 with His6 and Flag tags (Plasmid A), VL on kappa CL (Plasmid C); also called H: APFF LTH & L: NDH LG
B9: Fab VH1-46_IGHD6-6*01_IGHJ1*01 S102A/S103P/S104F/H111F N52L/S54T/G56H & L6_IGKJ1*01 S28N/S30D/S31H S52L/A55S (Fab, V domains shown)
VH: B5 VH with N52L, S54T
VL: B6 VL with S52L, A55S
notes: Fab made in E. coli: VH on CH1 with His6 and Flag tags (Plasmid A), VL on kappa CL (Plasmid C); also called H: APFF LTH & L: NDH LS
B10: Fab VH1-46_IGHD6-6*01_IGHJ1*01 S102A/S103P/S104F/H111F I51A/N52L/S54T/G56H & L6_IGKJ1*01 S28N/S30D/S31H S52L/A55G (Fab, V domains shown)
VH: B5 VH with I51A, N52L, S54T
VL: B6 VL with S52L, A55G
notes: Fab made in E. coli: VH on CH1 with His6 and Flag tags (Plasmid A), VL on kappa CL (Plasmid C); also called H: APFF ALTH & L: NDH LG
B11: Fab VH1-46_IGHD6-6*01_IGHJ1*01 S102A/S103P/S104F/H111F I51A/N52L/S54T/G56H & L6_IGKJ1*01 S28N/S30D/S31H S52L/A55S (Fab, V domains shown)
VH: B5 VH with I51A, N52L, S54T
VL: B6 VL with S52L, A55S
notes: Fab made in E. coli: VH on CH1 with His6 and Flag tags (Plasmid A), VL on kappa CL (Plasmid C); also called H: APFF ALTH & L: NDH LS

Experiments:
[1] = target: T1, recombinant human DLL4 (Cat# 1506-D4/CF, R&D Systems) (human, UniProt Q9NR61 27-529); test: ELISA, DLL4 coated, Fab 50 nM
T1 construct: Bought protein; also called hDLL4; rHuman DLL4
Description: (§1) In this example, an ELISA binding assay was used to assess the dose-dependent binding of Fab antibodies to recombinant human DLL4 and recombinant mouse DLL4.
(§2) The plate was blocked by adding 1% BSA in Tris-buffered Saline Tween (TBST) and incubating for 1 hour at room temperature followed by washing 2 times with 150 μl TBST. A Fab antibody was serially diluted in 1% BSA in PBS. A 50 μl aliquot of each serial dilution was added, in triplicate, to each well and the plate was incubated for 1 hour at room temperature followed by washing 2 times with TBST. 50 μl of either goat anti-human kappa HRP conjugated secondary antibody (Cat # A7164-1 mL, Sigma-Aldrich) or goat anti-human lambda HRP conjugated secondary antibody (Cat # L1645-1 ml, Sigma-Aldrich), diluted 1:1000 in 1% BSA in PBS, was added to each well and the plate was incubated for 30 minutes at room temperature followed by washing 3 times with 200 μl TBST. Finally, 50 μl TMB one-component reagent (Cat # TMBW-1000-01, BioFax) was added and allowed to develop for 2 minutes at room temperature. The reaction was immediately halted by the addition of 50 μl 0.5M H₂SO₄ and the absorbance at 450 nm was measured using an ELISA plate reader.

[2] = target: T1, recombinant human DLL4 (Cat# …); test: ELISA, DLL4 coated, Fab 25 nM
Description: as §2

[3] = target: T1, recombinant human DLL4 (Cat# …); test: ELISA, DLL4 coated, Fab 12.5 nM
Description: as §1, §2

[4] = target: T1, recombinant human DLL4 (Cat# …); test: ELISA, DLL4 coated, Fab 100 nM
Description: as §1, §2

[5] = target: T1, recombinant human DLL4 (Cat# …); test: SPR (ProteOn), hDLL4 amine-coupled on chip
Description: In this example, the binding affinities of selected anti-DLL4 Fabs to recombinant human DLL4 (hDLL4, Cat# 1506-D4/CF, R&D Systems) were analyzed using Surface Plasmon Resonance (SPR) (Biosensor Tools, Salt Lake City, Utah). The Fabs analyzed include germline-derived antibodies and germline-modified DLL4 antibodies. Recombinant hDLL4 was immobilized on a SPR chip using amine coupling at three different surface densities. The Fabs were serially diluted 3-fold, with an initial concentration of 1 μM. Binding studies were run on a ProteOn system using a GLM sensor chip in 10 mM HEPES, pH 7.4, 150 mM NaCl, 0.01% Tween-20, and 0.1 mg/ml BSA at 25° C. The response data from each surface was globally fit to determine the binding constants.

[6] = target: T1, recombinant human DLL4 (Cat# …); test: ELISA, DLL4 coated, Fab 20 nM
Description: as §2

[7] = target: T1, recombinant human DLL4 (Cat# …); test: ELISA, DLL4 coated, Fab 0.74 nM
Description: as §2

[8] = target: T1, recombinant human DLL4 (Cat# …); test: ELISA, DLL4 coated, Fab 6.67 nM
Description: as §2

[9] = target: T1, recombinant human DLL4 (Cat# …); test: ELISA, DLL4 coated, Fab 2.22 nM
Description: as §2

ELISA absorbance at 450 nm [1] [A450]	ELISA absorbance at 450 nm [2] [A450]	ELISA absorbance at 450 nm [3] [A450]	ELISA absorbance at 450 nm [4] [A450]	Kd [5] [nM]	koff [5] [s⁻¹]	kon [5] [M⁻¹ s⁻¹]	ELISA absorbance at 450 nm [6] [A450]	ELISA absorbance at 450 nm [7] [A450]	ELISA absorbance at 450 nm [8] [A450]	ELISA absorbance at 450 nm [9] [A450]	Binder
0.81	0.67	0.47	0.96								B1
0.79	0.62	0.41	0.99								B2
0.74	0.6	0.43	0.95								B3
0.72	0.56	0.41	0.9								B4
				32.7	0.0101	351000					B5
							0.391	0.024	0.232	0.069	B6
							0.863	0.27	0.739	0.463	B7
							1.01	0.368	0.88	0.594	B8
							1.05	0.398	0.916	0.557	B9
							0.39	0.028	0.212	0.069	B10
							0.458	0.046	0.282	0.04	B11
